# Results from US20220033501A1 (SHANGHAI PHARMAEXPLORER, published 2022).
# Numbering of substitutions follows the chain as printed.
# T1: murine TIM-3 protein with hFc tag (mTIM-3-hFc protein) (mouse; human, UniProt Q8VIM0 29-191)
# T1 construct: Made in HEK293 cells; also called mouse TIM-3 extracellular domain protein; not shown: human IgG Fc fragment (hFc) of the pCpC vector
# T1 chain: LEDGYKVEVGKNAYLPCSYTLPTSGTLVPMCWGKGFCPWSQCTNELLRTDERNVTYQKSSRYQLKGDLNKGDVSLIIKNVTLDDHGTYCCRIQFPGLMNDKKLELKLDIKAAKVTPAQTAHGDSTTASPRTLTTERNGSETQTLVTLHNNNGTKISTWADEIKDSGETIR
# T2: human TIM-3 extracellular domain protein with hFc tag (hTIM-3-hFc) (human, UniProt Q8TDQ0 22-200)
# T2 construct: not shown: human IgG Fc fragment (hFc) of the pCpC vector
# T2 sequence: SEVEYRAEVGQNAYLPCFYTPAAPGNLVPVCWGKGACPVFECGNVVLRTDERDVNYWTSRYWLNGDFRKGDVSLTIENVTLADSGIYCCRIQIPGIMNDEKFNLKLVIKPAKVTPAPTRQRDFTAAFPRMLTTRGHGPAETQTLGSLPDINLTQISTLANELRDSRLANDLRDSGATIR
# T3: TIM-3 protein on human peripheral blood mononuclear lymphocytes (PBMC) (human, UniProt Q8TDQ0 22-301)
# T3 sequence: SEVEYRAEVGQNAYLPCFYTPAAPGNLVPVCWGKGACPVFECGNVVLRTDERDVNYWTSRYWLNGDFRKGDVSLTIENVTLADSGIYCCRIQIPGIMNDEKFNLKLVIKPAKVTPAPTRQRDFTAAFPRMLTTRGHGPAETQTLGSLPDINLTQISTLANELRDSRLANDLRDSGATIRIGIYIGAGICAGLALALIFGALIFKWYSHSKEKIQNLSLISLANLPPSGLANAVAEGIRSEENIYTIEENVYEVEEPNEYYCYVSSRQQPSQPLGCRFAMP
# T4: murine TIM-3 extracellular domain protein with hFc tag (mTIM-3-hFc) (mouse, UniProt Q8VIM0 29-191)
# T4 construct: also called mouse TIM-3 extracellular domain protein; not shown: human IgG Fc fragment (hFc) of the pCpC vector
# T4 chain: T1 chain
# T5: monkey TIM-3 on CHOK1 stable cell line (CHOK1-cTIM-3) (monkey)
# T5 chain: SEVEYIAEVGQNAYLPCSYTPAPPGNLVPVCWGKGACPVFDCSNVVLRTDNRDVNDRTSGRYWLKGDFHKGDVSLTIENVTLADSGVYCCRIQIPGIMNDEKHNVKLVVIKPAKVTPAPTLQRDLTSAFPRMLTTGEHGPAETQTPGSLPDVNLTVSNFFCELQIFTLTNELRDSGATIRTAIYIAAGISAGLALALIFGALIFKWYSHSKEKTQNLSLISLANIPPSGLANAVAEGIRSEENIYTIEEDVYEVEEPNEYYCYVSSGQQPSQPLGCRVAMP
# T6: monkey TIM-3 extracellular domain protein with hFc tag (cTIM-3-hFc) (monkey)
# T6 construct: not shown: human IgG Fc fragment (hFc) of the pCpC vector
# T6 chain: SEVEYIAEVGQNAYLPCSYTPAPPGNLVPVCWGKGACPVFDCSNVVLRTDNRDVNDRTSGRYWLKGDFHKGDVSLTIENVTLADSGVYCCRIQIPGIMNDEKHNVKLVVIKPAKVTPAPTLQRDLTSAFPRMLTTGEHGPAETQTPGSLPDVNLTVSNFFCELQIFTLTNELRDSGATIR
# B1: 7A4F10 (TIM-3 antibody purified from hybridoma, chimeric antibody of Example 2) (antibody, V domains shown)
# VH: EVQLLESGGGLVQPGGSLRLSCAASGFTFRTHLISWVRQAPGKGLEWVAAITGSGGSTYYADSVKGRFIISRDNSKNTLFLQMNSLRAEDTAVYYCAKDGGSGSYDDFWGQGTLVTVSS
# VL: ETVLTQSPVTLSLSPGERATLSCRASQSVGSYLAWYQQKPGQAPRLLIYDASNRATGIPARFSGSGSGTDFTLTISSLEPEDFAVYYCQQRSNWPPTFGQGTKVEIK
# notes: From hybridoma of Harbour H2L2 transgenic mice: human variable regions, rat constant regions
# B2: 34B6D8 (TIM-3 antibody purified from hybridoma, chimeric antibody of Example 2) (antibody, V domains shown)
# VH: EVQLVESGGGLVQPGGSLRLSCAASGFTFSTYWMTWVRQAPGKRLEWVANIKQGGGDKYYVDSVKGRFTISTDNAKNSLYLQMNSLRAEDTAVYYCARGSNWFDPWGQGTLVTVSS
# VL: EIVMTQSPATLSMSPGERATLSCRASQSVYDNLAWYQQKPGQAPRLLIYGASTRATGIPARFSGSGSGTEFTLTISSLQSEDFALYYCQQYTHWPITFGQGTRLEIK
# notes: as for B1
# B3: 57F4E5 fully human TIM-3 antibody (human IgG4, kappa) (antibody, V domains shown)
# VH: EVQLVESGGGLVQPGGSLRLSCAASGFTFSSYWMSWVRQAPGKGLEWVANIKQDGSEKYYVDSVKGRFTISRDSAKNSLYLQMNSLRAEDTAMYFCARDSNFFDYWGQGTLVTVSS
# VL: ETVMTQSPATLSVSPGERATLSCRASQSVSSNLAWYQRKPGQAPRLLIYFSSTRATGIPARFSGSGSGTEFTLTISSLQSEDFAVYYCQQYNNWPLTFGGGTKVEIK
# B4: 39E5H1 (TIM-3 antibody purified from hybridoma, chimeric antibody of Example 2) (antibody, V domains shown)
# VH: B2 VH with T31S, T35S, R44G, Q53R, G56S, D57E, K58R, T72G, L79V
# VL: B2 VL with I2T, T10I, M13V, D31S, P40L, G50D, L85V, T92N, H93N
# notes: as for B1
# B5: 134H3G6 fully human TIM-3 antibody (human IgG4, kappa) (antibody, V domains shown)
# VH: EVQLVESGGGLVQPGGSLRLSCAASGFTFSNSWMTWVRQAPGKGLEWVANIKQAGTEKYYVDSVKGRFTISRDNAKNSLYLQMNSLRAEDTAVYYCNSGSNYFDYWGQGTLVTVSS
# VL: B3 VL with T2I, S26R, S28N, V29F, S30Y, R38Q, F50G, S51A
# B6: 57F4E5 (TIM-3 antibody purified from hybridoma, chimeric antibody of Example 2) (antibody, V domains shown)
# VH: B3 VH
# VL: B3 VL
# notes: as for B1
# B7: 134H3G6 (TIM-3 antibody purified from hybridoma, chimeric antibody of Example 2) (antibody, V domains shown)
# VH: B5 VH
# VL: B3 VL with T2I, S26R, S28N, V29F, S30Y, R38Q, F50G, S51A
# notes: as for B1
# B8: 18D2H2 (TIM-3 antibody purified from hybridoma, chimeric antibody of Example 2) (antibody, V domains shown)
# VH: B2 VH with G10D, K43R, R44G, G54D, G56S, D57A, I70L, T72R, N74D, P105Y
# VL: B3 VL with S26N, S28N, S30Y, R38Q, F50D, S51A, I58F
# notes: as for B1
# B9: 215A8F2 (TIM-3 antibody purified from hybridoma, chimeric antibody of Example 2) (antibody, V domains shown)
# VH: QVQLQQWGAGLLKPSETLSLTCTVYGGSFSGYYWNWIRQPPGKGLEWLGEINHSGSTNYNPSLKRRVTISVDTSKNQFSLKLSSVTAADTAVYYCARVYYYGPFDFWGQGTLVTVSS
# VL: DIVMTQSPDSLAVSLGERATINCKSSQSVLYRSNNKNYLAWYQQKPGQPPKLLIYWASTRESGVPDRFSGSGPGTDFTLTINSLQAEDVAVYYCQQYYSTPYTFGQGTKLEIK
# notes: as for B1
# Columns and labels:
# [1] = target: T1, murine TIM-3 protein with hFc tag …; experiment: ELISA, coated mTIM-3-hFc; antibody 0.0001 nM
# From the text: The amino acid sequence 22-200 of the extracellular domain of the human TIM-3 protein described in the step of Example 1 (as shown in SEQ ID NO. 71 in the sequence listing) was cloned into a pCpC vector having a human IgG Fc fragment (hFc), and transfected into HEK293 cells. The cell culture medium was collected, and purified to obtain the human TIM-3 protein with hFc tag (herein referred to as hTIM-3-hFc protein). The amino acid sequence 22-201 of the extracellular domain of the monkey TIM-3 protein (as shown in SEQ ID NO. 72 in the sequence listing) was cloned into a pCpC vector having a human IgG Fc fragment (hFc), and transfected into HEK293 cells. The cell culture medium was collected, and purified to obtain the monkey TIM-3 protein with hFc tag (herein referred to as cTIM-3-hFc protein). […] The cell culture medium was collected, and purified to obtain the murine TIM-3 protein with hFc tag (herein referred to as mTIM-3-hFc protein). Purified human, monkey, and mouse TIM-3 extracellular domain proteins (hTIM-3-hFc, cTIM-3-hFc, and mTIM-3-hFc) were diluted with PBS to a final concentration of 1.0 μg/ml and then added to a 96-well ELISA plate with 100 μl per well. The plate was sealed with plastic film and incubated overnight at 4° C. The plate was washed 4 times with the plate washing solution (PBS+0.01% Tween20) on the next day, and added with the blocking solution (PBS+0.01% Tween20+1% BSA) and sealed at room temperature for 1-2 hours. The blocking solution was poured out. 50-100 μl of the antibody sample to be tested was added to each well. The plate was incubated at 37° C. for 1-2 hours, and washed 2-3 times with plate washing solution (PBS+0. 01% Tween20). HRP (horseradish peroxidase) labeled secondary antibody was added. The plate was incubated at 37° C. for 1-2 hours, and washed 2-3 times with plate washing solution (PBS+0. 01% Tween20). […] of TMB substrate was added to each well. After incubated at room temperature for 15-30 minutes, the plate was added with […] stop solution (1.0N HCl) to each well. An ELISA plate reader (TiterMax 384plus, Molecular Device) was used to read the A450 nm value.
# [2] = target: T2, human TIM-3 extracellular domain …; experiment: ELISA, coated human TIM-3 ECD protein, 0.6667 nM antibody
# [3] = target: T3, TIM-3 protein on human peripheral blood …; experiment: cell-based or functional assay
# [4] = target: T4, murine TIM-3 extracellular domain …; experiment: ELISA, coated mouse TIM-3 ECD protein, 66.667 nM antibody
# [5] = target: T4, murine TIM-3 extracellular domain …; experiment: ELISA, coated mouse TIM-3 ECD protein, 6.6667 nM antibody
# [6] = target: T4, murine TIM-3 extracellular domain …; experiment: ELISA, coated mouse TIM-3 ECD protein, 0.6667 nM antibody
# [7] = target: T5, monkey TIM-3 on CHOK1 stable cell line …; experiment: FACS, CHOK1-cTIM-3 cells, 40 nM antibody
# [8] = target: T6, monkey TIM-3 extracellular domain …; experiment: ELISA, coated monkey TIM-3 ECD protein, 66.667 nM antibody
binder,measurement,setting,value
B1,OD450,[1],0.65
B2,OD450,[1],0.62
B3,OD450,[2],2.89
same,"IFN-γ production (donor X); antibody 0.1 µg/ml, N = 1",[3],2800 pg/mL
same,"IFN-γ production (donor X); antibody 0.1 µg/ml, N = 2",[3],2980 pg/mL
same,"IFN-γ production (donor X); antibody 1 µg/ml, N = 1",[3],3550 pg/mL
same,"IFN-γ production (donor X); antibody 1 µg/ml, N = 2",[3],3150 pg/mL
same,"IFN-γ production (donor X); antibody 10 µg/ml, N = 1",[3],3080 pg/mL
same,"IFN-γ production (donor X); antibody 10 µg/ml, N = 2",[3],3340 pg/mL
same,"IFN-γ production (donor X); antibody '0' (4th head as printed), N = 1",[3],2870 pg/mL
same,"IFN-γ production (donor X); antibody '0' (4th head as printed), N = 2",[3],2740 pg/mL
same,"IFN-γ production (donor X); antibody '0' (5th head as printed), N = 1",[3],2160 pg/mL
same,"IFN-γ production (donor X); antibody '0' (5th head as printed), N = 2",[3],2400 pg/mL
same,OD450,[4],1.55
same,OD450,[5],0.54
same,OD450,[6],0.28
same,Mean fluorescence intensity,[7],269
same,OD450,[8],3.42
B4,OD450,[1],0.64
B5,OD450,[2],2.74
same,"IFN-γ production (donor X); antibody 0.1 µg/ml, N = 1",[3],2610 pg/mL
same,"IFN-γ production (donor X); antibody 0.1 µg/ml, N = 2",[3],2720 pg/mL
same,"IFN-γ production (donor X); antibody 1 µg/ml, N = 1",[3],3250 pg/mL
same,"IFN-γ production (donor X); antibody 1 µg/ml, N = 2",[3],2890 pg/mL
same,"IFN-γ production (donor X); antibody 10 µg/ml, N = 1",[3],3460 pg/mL
same,"IFN-γ production (donor X); antibody 10 µg/ml, N = 2",[3],3480 pg/mL
same,"IFN-γ production (donor X); antibody '0' (4th head as printed), N = 1",[3],2390 pg/mL
same,"IFN-γ production (donor X); antibody '0' (4th head as printed), N = 2",[3],2430 pg/mL
same,"IFN-γ production (donor X); antibody '0' (5th head as printed), N = 1",[3],2510 pg/mL
same,"IFN-γ production (donor X); antibody '0' (5th head as printed), N = 2",[3],2370 pg/mL
same,OD450,[4],0.94
same,OD450,[5],0.36
same,OD450,[6],0.23
same,Mean fluorescence intensity,[7],376
same,OD450,[8],3.11
B6,OD450,[1],0.63
B7,OD450,[1],0.64
B8,OD450,[1],0.64
B9,OD450,[1],0.63
